The values below come from article PMC9146797, “[^99mTc]Tc-Labeled Plectin-Targeting Peptide as a Novel SPECT Probe for Tumor Imaging” (Pharmaceutics, 2022).

Where a SMILES comes first, the peptide text is derived from it. Where no end group is shown, it is not given here.

The test system of one series is healthy ICR mice. As to the kind of experiment: Pharmacokinetics in blood. In kind it is in vivo. Conditions: for radioactivity in blood: i.v. 20 µCi. As to the method: The pharmacokinetic profile of [^99mTc]Tc-HYNIC-PTP was investigated in healthy ICR mice. The mice were randomly divided into nine groups (n = 3), and each mouse was intravenously injected with [^99mTc]Tc-HYNIC-PTP at a dose of 20 µCi in a 200 µL solution. One hundred microliters of blood from each mouse was immediately collected and weighed at designated times (1, 2, 5, 15, 30, 60, 120, 240, and 360 min), and radioactivity was measured using a γ-counter (CAPINTEC, USA) to calculate the percent uptake of the injected dose per gram (%ID/g). In addition, the pharmacokinetic data were analyzed by DAS 2.0 (Shanghai, China) using a two-compartment model to calculate the half-life of [^99mTc]Tc-HYNIC-PTP in the blood.

Series [1] has as its system tumor-bearing mice (U87, C6, A549, 4T1, and BxPC-3). Put plainly: SPECT imaging in vivo. Conditions: i.v. 200 µL of 10 mCi/mL, 0.5-4 h. As to the method: The feasibility of [^99mTc]Tc-HYNIC-PTP as a SPECT probe for tumor imaging was examined using established subcutaneous tumor models. Briefly, [^99mTc]Tc-HYNIC-PTP solution (200 µL, [^99mTc]Tc = 10 mCi/mL, corresponding to 2 µg of HYNIC-PTP) was intravenously injected into tumor-bearing mice. SPECT images were acquired 0.5, 1, 2, and 4 h after injection using a SPECT imaging system equipped with a Xeleris 2.0 workstation and low-energy general-purpose collimators (Infinia, Denver, CO, USA). After SPECT imaging, the tumors and muscle tissues were excised to confirm plectin expression levels by immunohistochemistry. Briefly, excised specimens were fixed in formalin and embedded in paraffin. The sections (5 μm) were subjected to heat treatment in a citrate solution for antigen retrieval and blocking with 3% bovine serum albumin for 30 min. Then the sections were incubated with anti-plectin primary antibody (1:200) overnight at 4 °C. After incubation with secondary antibody (K5007, DAKO, Carpinteria, CA, USA) at room temperature for 50 min, the slides were treated with 1:100 DAB (K5007, DAKO, USA) and counterstained with hematoxylin. At least three sections of each specimen were chosen, and 5–10 high-power visual fields were randomly selected to calculate the positive area of staining. The average areas were then used to plot histograms.

Series [2] in a line: In vitro stability in FBS (RCP by ITLC). In kind it is in vitro ADME, bovine. Conditions: 37 °C, 0-6 h. On the procedure: The [^99mTc]Tc-labeled PTP was characterized using an Agilent 1260 HPLC system (Agilent Technologies, Santa Clara, CA, USA) equipped with a UV-vis detector (λ = 220 nm) and a radioactive flow detector (BioScan, Poway, CA, USA). A SunFire C18 column (5 µm, 4.6 × 250 mm, Waters, Japan) was used at a 1 mL/min flow rate with the following gradient method: 0.1% trifluoroacetic acid in H2O and CH3CN (0–20 min, 15–45% CH3CN). The RCP of [^99mTc]Tc-HYNIC-PTP was determined by radio-HPLC and could also be rapidly analyzed by ITLC in a system consisting of silica gel 60 F254 TLC plates (Merck, Germany) and 50% acetonitrile as mobile phase. To assess the stability in vitro, the formed [^99mTc]Tc-HYNIC-PTP (500 μL, 1 mCi) was mixed with 500 μL of PBS (0.1 M, pH = 7.4) and 500 µL of cysteine solution (100-fold molar excess over the PTP) at room temperature, and 500 µL of FBS at 37 °C. The RCPs were tested by ITLC at different time intervals (0–6 h).

For a further series, the system named is BALB/c nude mice. Put plainly: Preliminary toxicity study in vivo. On the procedure: To assess the preliminary safety in vivo, five BALB/c nude mice were treated with PTP at a single dose (1 mg, 100 µL), and another five mice treated with saline were used as the control group. The body weight, physical activity, and death of each mouse were recorded during the following seven days. The major organs of the mice, including the heart, liver, spleen, lung, and kidneys, were harvested for histological examination.

The next series is described as follows: CCK-8 cytotoxicity assay. In kind it is cell-based. To be noted: C6 and BEAS-2B cells, PTP 0-200 µg/mL, CCK-8, absorbance 450 nm, BxPC-3, C6, BEAS-2B cells (Figure S1), read-out: cell viability. As to the method:
CCK-8 assays were used to assess the potential cytotoxic effects of PTP on normal and tumor cell lines. Briefly, taking BxPC-3 cells as an example, the cells were seeded into 96-well plates at a density of 1 × 10^4 per well with RPMI-1640 medium and 10% FBS. After 24 h, the medium was replaced with 100 µL of fresh medium containing different concentrations of PTP (0–200 µg/mL) for another 24 h. Next, 10 µL of CCK-8 solution was added, and the cells were subsequently cultured for 1.5 h. Absorbance at 450 nm was measured using a Varioskan Flash multimode microplate reader (Thermo Fisher Scientific, Waltham, MA, USA). The cytocompatibility of PTP was also assessed in C6 and BEAS-2B cells using the same method.
For orientation: Tetrazolium assays rely on reduction of a dye to a coloured formazan, in cell work by metabolically active cells.

[3] abbreviates: blood, two-compartment model, DAS 2.0.

Turning to `CC(C)C[C@H](NC(=O)[C@@H](NC(=O)[C@H](CCCCN)NC(=O)c1ccc(NN)nc1)[C@@H](C)O)C(=O)N[C@@H](CC(C)C)C(=O)N1CCC[C@H]1C(=O)N[C@H](C(=O)N1CCC[C@H]1C(=O)O)[C@@H](C)O` [[^99mTc]Tc-HYNIC-PTP, metal not drawn] (HELM PEPTIDE1{[NNc1ccc(C(=O)[*:2])cn1].K.T.L.L.P.T.P}$$$$V2.0), the radioactivity in blood in the series with healthy ICR mice (1 min post-injection, n = 3, γ-counter) is listed as 14.52 %ID/g; in the series with healthy ICR mice (30 min post-injection, n = 3), 1.35 %ID/g; in the series with healthy ICR mice (360 min post-injection, n = 3) it was “Less than 0.01 %ID/g”. The “clear-phase half-life (t1/2 beta)” value in the series with healthy ICR mice (setting [3]) turned out to be 9.17 min. In addition, the “distribution-phase half-life (t1/2 alpha)” value with healthy ICR mice (setting [3]) came to 0.88 min. The route of clearance result in series [1] was “predominantly cleared through the urinary system”. Further, the “change of RCP in FBS” value in series [2] is listed as “no evident changes in RCPs”.

For the molecule KTLLPTP [PTP], in the series on BALB/c nude mice (single dose 1 mg in 100 µL, five mice, seven days, vs saline), the death of mice result was “None of the mice died”. Besides, the “body weight and physical activity” value in the series with BALB/c nude mice (single dose 1 mg in 100 µL, within seven days, vs saline group) is given as “no significant difference”. For the same molecule, the “H&E staining of main organs (heart, liver, lung, spleen, kidneys)” value in the series with BALB/c nude mice (single dose 1 mg, vs saline group (Figure S2)) is “no significant difference in tissue damage, necrotic areas, or abnormalities”. Also, the viability – broadly, a read-out of living cells in per cent, often relative to untreated cells – at 24 h in the series “CCK-8 cytotoxicity assay” was greater than 90%.
